{"source": "paper PMC8509576", "about": "“Loops around the Heme Pocket Have a Critical Role in the Function and Stability of BsDyP from Bacillus subtilis” (International Journal of Molecular Sciences, 2021)", "proteins": {"B1": {"name": "BsDyP (Bacillus subtilis subsp. subtilis str. 168; A45M) (protein)", "chain": "MKPSKKDEKEEEQIVPFYGKHQAGITTAHQTYVYFAALDVTAKDKSDIITLFRNWTSLTQMLTSGKKMSAEQRNQYLPPQDTGESADLSPSNLTVTFGFGPGFFEKDGKDRFGLKSKKPKHLAALPAMPNDNLDEKQGGGDICIQVCADDEQVAFHALRNLLNQAVGTCEVRFVNKGFLSGGKNGETPRNLFGFKDGTGNQSTKDDTLMNSIVWIQSGEPDWMTGGTYMAFRKIKMFLEVWDRSSLKDQEDTFGRRKSSGAPFGQKKETDPVKLNQIPSNSHVSLAKSTGKQILRRAFSYTEGLDPKTGYMDAGLLFISFQKNPDNQFIPMLKALSAKDALNEYTQTIGSALYACPGGCKKGEYIAQRLLES", "notes": "Tat signal peptide (residues 1-45) deleted, A45M new start codon, plasmid pVB4 (pET-21a), no tag told; expressed in E. coli Tuner(DE3); called wild-type BsDyP; precursor 416 residues"}, "B2": {"name": "BsDyP (Bacillus subtilis subsp. subtilis str. 168; A45M/K317E/S325P) (protein)", "chain": "MKPSKKDEKEEEQIVPFYGKHQAGITTAHQTYVYFAALDVTAKDKSDIITLFRNWTSLTQMLTSGKKMSAEQRNQYLPPQDTGESADLSPSNLTVTFGFGPGFFEKDGKDRFGLKSKKPKHLAALPAMPNDNLDEKQGGGDICIQVCADDEQVAFHALRNLLNQAVGTCEVRFVNKGFLSGGKNGETPRNLFGFKDGTGNQSTKDDTLMNSIVWIQSGEPDWMTGGTYMAFRKIKMFLEVWDRSSLKDQEDTFGRRKSSGAPFGQKKETDPVELNQIPSNPHVSLAKSTGKQILRRAFSYTEGLDPKTGYMDAGLLFISFQKNPDNQFIPMLKALSAKDALNEYTQTIGSALYACPGGCKKGEYIAQRLLES", "notes": "as for B1"}, "B3": {"name": "BsDyP (Bacillus subtilis subsp. subtilis str. 168; A330V/A45M/K317E/S325P) (protein)", "chain": "MKPSKKDEKEEEQIVPFYGKHQAGITTAHQTYVYFAALDVTAKDKSDIITLFRNWTSLTQMLTSGKKMSAEQRNQYLPPQDTGESADLSPSNLTVTFGFGPGFFEKDGKDRFGLKSKKPKHLAALPAMPNDNLDEKQGGGDICIQVCADDEQVAFHALRNLLNQAVGTCEVRFVNKGFLSGGKNGETPRNLFGFKDGTGNQSTKDDTLMNSIVWIQSGEPDWMTGGTYMAFRKIKMFLEVWDRSSLKDQEDTFGRRKSSGAPFGQKKETDPVELNQIPSNPHVSLVKSTGKQILRRAFSYTEGLDPKTGYMDAGLLFISFQKNPDNQFIPMLKALSAKDALNEYTQTIGSALYACPGGCKKGEYIAQRLLES", "notes": "as for B1"}, "B4": {"name": "BsDyP (Bacillus subtilis subsp. subtilis str. 168; A45M/S325P) (protein)", "chain": "MKPSKKDEKEEEQIVPFYGKHQAGITTAHQTYVYFAALDVTAKDKSDIITLFRNWTSLTQMLTSGKKMSAEQRNQYLPPQDTGESADLSPSNLTVTFGFGPGFFEKDGKDRFGLKSKKPKHLAALPAMPNDNLDEKQGGGDICIQVCADDEQVAFHALRNLLNQAVGTCEVRFVNKGFLSGGKNGETPRNLFGFKDGTGNQSTKDDTLMNSIVWIQSGEPDWMTGGTYMAFRKIKMFLEVWDRSSLKDQEDTFGRRKSSGAPFGQKKETDPVKLNQIPSNPHVSLAKSTGKQILRRAFSYTEGLDPKTGYMDAGLLFISFQKNPDNQFIPMLKALSAKDALNEYTQTIGSALYACPGGCKKGEYIAQRLLES", "notes": "as for B1"}, "B5": {"name": "BsDyP (Bacillus subtilis subsp. subtilis str. 168; A330V/A45M/L166Q/T296S/V284A) (protein)", "chain": "MKPSKKDEKEEEQIVPFYGKHQAGITTAHQTYVYFAALDVTAKDKSDIITLFRNWTSLTQMLTSGKKMSAEQRNQYLPPQDTGESADLSPSNLTVTFGFGPGFFEKDGKDRFGLKSKKPKHQAALPAMPNDNLDEKQGGGDICIQVCADDEQVAFHALRNLLNQAVGTCEVRFVNKGFLSGGKNGETPRNLFGFKDGTGNQSTKDDTLMNSIVWIQSGEPDWMTGGTYMAFRKIKMFLEAWDRSSLKDQEDSFGRRKSSGAPFGQKKETDPVKLNQIPSNSHVSLVKSTGKQILRRAFSYTEGLDPKTGYMDAGLLFISFQKNPDNQFIPMLKALSAKDALNEYTQTIGSALYACPGGCKKGEYIAQRLLES", "notes": "as for B1"}}, "key": {"[1]": {"substrate": "COc1cccc(OC)c1O", "assay": "steady-state kinetics, oxidation followed by absorbance", "format": "biochemical, Bacillus subtilis", "excerpt": "steady-state kinetics, oxidation followed by absorbance on BsDyP"}, "[2]": {"substrate": "CCn1c(=NN=c2sc3cc(S(=O)(=O)O)ccc3n2CC)sc2cc(S(=O)(=O)O)ccc21", "assay": "steady-state kinetics, ABTS oxidation", "format": "biochemical, Bacillus subtilis", "details": "one kcat column shared with H2O2", "excerpt": "steady-state kinetics, ABTS oxidation on BsDyP"}, "[3]": {"details": "0.2 mM H2O2, sodium phosphate buffer pH 3.8, 25 °C, apparent, rates per holoprotein"}, "[4]": {"details": "0.2 mM H2O2, pH 4.2, 25 °C, apparent"}, "[5]": {"details": "variant 54D6, 0.6 mM H2O2, sodium phosphate buffer pH 3.8, 25 °C"}, "[6]": {"details": "variant 54D6, 0.6 mM H2O2, pH 4.2, 25 °C"}, "[7]": {"details": "variant 5G5, 0.6 mM H2O2, sodium phosphate buffer pH 3.8, 25 °C"}, "[8]": {"details": "variant 5G5, 0.6 mM H2O2, pH 4.2, 25 °C"}, "[9]": {"details": "variant 1F9, 0.6 mM H2O2, sodium phosphate buffer pH 3.8, 25 °C"}, "[10]": {"details": "variant 1F9, 0.6 mM H2O2, pH 4.2, 25 °C"}, "[11]": {"details": "variant 3G5, 0.6 mM H2O2, sodium phosphate buffer pH 3.8, 25 °C"}, "[12]": {"details": "variant 3G5, 0.6 mM H2O2, pH 4.2, 25 °C"}}}
{"protein": "B1", "values": [{"measurement": "Km", "setting": "[1]; [3]", "value": "0.06 ± 0.01", "unit": "mM"}, {"measurement": "kcat", "setting": "[1]; [3]", "value": "0.42 ± 0.03", "unit": "s⁻¹"}, {"measurement": "kcat/Km", "setting": "[1]; [3]", "value": "7000 ± 1000", "unit": "M⁻¹ s⁻¹"}, {"measurement": "Km", "setting": "[2]; [4]", "value": "0.42 ± 0.03", "unit": "mM"}, {"measurement": "kcat", "setting": "[2]; [4]", "value": "14.2 ± 1.0", "unit": "s⁻¹"}, {"measurement": "kcat/Km", "setting": "[2]; [4]", "value": "36000 ± 3000", "unit": "M⁻¹ s⁻¹"}]}
{"protein": "B2", "values": [{"measurement": "Km", "setting": "[1]; [5]", "value": "0.60 ± 0.01", "unit": "mM"}, {"measurement": "kcat", "setting": "[1]; [5]", "value": "1 ± 0.1", "unit": "s⁻¹"}, {"measurement": "kcat/Km", "setting": "[1]; [5]", "value": "1600 ± 500", "unit": "M⁻¹ s⁻¹"}, {"measurement": "Km", "setting": "[2]; [6]", "value": "0.80 ± 0.14", "unit": "mM"}, {"measurement": "kcat", "setting": "[2]; [6]", "value": "47.7 ± 2.9", "unit": "s⁻¹"}, {"measurement": "kcat/Km", "setting": "[2]; [6]", "value": "60000 ± 11000", "unit": "M⁻¹ s⁻¹"}]}
{"protein": "B3", "values": [{"measurement": "Km", "setting": "[1]; [7]", "value": "0.7 ± 0.1", "unit": "mM"}, {"measurement": "kcat", "setting": "[1]; [7]", "value": "2.8 ± 0.1", "unit": "s⁻¹"}, {"measurement": "kcat/Km", "setting": "[1]; [7]", "value": "3800 ± 200", "unit": "M⁻¹ s⁻¹"}, {"measurement": "Km", "setting": "[2]; [8]", "value": "1.29 ± 0.19", "unit": "mM"}, {"measurement": "kcat", "setting": "[2]; [8]", "value": "56.1 ± 1.9", "unit": "s⁻¹"}, {"measurement": "kcat/Km", "setting": "[2]; [8]", "value": "42000 ± 6000", "unit": "M⁻¹ s⁻¹"}]}
{"protein": "B4", "values": [{"measurement": "Km", "setting": "[1]; [9]", "value": "0.15 ± 0.01", "unit": "mM"}, {"measurement": "kcat", "setting": "[1]; [9]", "value": "0.83 ± 0.04", "unit": "s⁻¹"}, {"measurement": "kcat/Km", "setting": "[1]; [9]", "value": "5500 ± 400", "unit": "M⁻¹ s⁻¹"}, {"measurement": "Km", "setting": "[2]; [10]", "value": "0.89 ± 0.10", "unit": "mM"}, {"measurement": "kcat", "setting": "[2]; [10]", "value": "50.4 ± 1.4", "unit": "s⁻¹"}, {"measurement": "kcat/Km", "setting": "[2]; [10]", "value": "58000 ± 7000", "unit": "M⁻¹ s⁻¹"}]}
{"protein": "B5", "values": [{"measurement": "Km", "setting": "[1]; [11]", "value": "0.09 ± 0.01", "unit": "mM"}, {"measurement": "kcat", "setting": "[1]; [11]", "value": "0.8 ± 0.1", "unit": "s⁻¹"}, {"measurement": "kcat/Km", "setting": "[1]; [11]", "value": "9000 ± 1000", "unit": "M⁻¹ s⁻¹"}, {"measurement": "Km", "setting": "[2]; [12]", "value": "1.37 ± 0.25", "unit": "mM"}, {"measurement": "kcat", "setting": "[2]; [12]", "value": "28.1 ± 2.1", "unit": "s⁻¹"}, {"measurement": "kcat/Km", "setting": "[2]; [12]", "value": "25000 ± 5000", "unit": "M⁻¹ s⁻¹"}]}
